In the supplement of paper PMC9876800:

Test system: peptide library, one residue held at a place counted from the S/T acceptor
Experiment: relative phosphorylation of the sub-library (ratio to the mean residue at this position); higher = residue favoured
Outline: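 Spots on streptavidin membranes were phosphorimaged and quantified by densitometry to measure phosphorylation of biotinylated degenerate peptide sub-libraries by purified recombinant kinases, human or orthologue constructs. The reactions ran in 384-well plates for 90 min under kinase-specific conditions, with peptides at 50 μM and 50 μM ATP spiked with γ-32P-ATP. Relative sub-library phosphorylation is the ratio to the mean residue at that position.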

Chain of MAPK7, construct: aa1-405, human (Q13164 1-405, looked up): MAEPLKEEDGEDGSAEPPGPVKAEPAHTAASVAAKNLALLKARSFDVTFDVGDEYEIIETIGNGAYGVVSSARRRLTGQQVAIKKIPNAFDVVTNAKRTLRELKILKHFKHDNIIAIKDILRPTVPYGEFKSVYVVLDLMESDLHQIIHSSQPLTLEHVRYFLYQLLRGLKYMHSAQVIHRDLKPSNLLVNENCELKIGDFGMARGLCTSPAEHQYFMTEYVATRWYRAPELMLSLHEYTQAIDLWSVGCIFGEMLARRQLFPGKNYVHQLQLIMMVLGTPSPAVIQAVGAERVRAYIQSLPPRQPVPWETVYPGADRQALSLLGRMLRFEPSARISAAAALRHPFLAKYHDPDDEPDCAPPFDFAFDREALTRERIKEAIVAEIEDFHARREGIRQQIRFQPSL
Chain of ATR, construct: Full length, human (Q13535 whole entry, looked up): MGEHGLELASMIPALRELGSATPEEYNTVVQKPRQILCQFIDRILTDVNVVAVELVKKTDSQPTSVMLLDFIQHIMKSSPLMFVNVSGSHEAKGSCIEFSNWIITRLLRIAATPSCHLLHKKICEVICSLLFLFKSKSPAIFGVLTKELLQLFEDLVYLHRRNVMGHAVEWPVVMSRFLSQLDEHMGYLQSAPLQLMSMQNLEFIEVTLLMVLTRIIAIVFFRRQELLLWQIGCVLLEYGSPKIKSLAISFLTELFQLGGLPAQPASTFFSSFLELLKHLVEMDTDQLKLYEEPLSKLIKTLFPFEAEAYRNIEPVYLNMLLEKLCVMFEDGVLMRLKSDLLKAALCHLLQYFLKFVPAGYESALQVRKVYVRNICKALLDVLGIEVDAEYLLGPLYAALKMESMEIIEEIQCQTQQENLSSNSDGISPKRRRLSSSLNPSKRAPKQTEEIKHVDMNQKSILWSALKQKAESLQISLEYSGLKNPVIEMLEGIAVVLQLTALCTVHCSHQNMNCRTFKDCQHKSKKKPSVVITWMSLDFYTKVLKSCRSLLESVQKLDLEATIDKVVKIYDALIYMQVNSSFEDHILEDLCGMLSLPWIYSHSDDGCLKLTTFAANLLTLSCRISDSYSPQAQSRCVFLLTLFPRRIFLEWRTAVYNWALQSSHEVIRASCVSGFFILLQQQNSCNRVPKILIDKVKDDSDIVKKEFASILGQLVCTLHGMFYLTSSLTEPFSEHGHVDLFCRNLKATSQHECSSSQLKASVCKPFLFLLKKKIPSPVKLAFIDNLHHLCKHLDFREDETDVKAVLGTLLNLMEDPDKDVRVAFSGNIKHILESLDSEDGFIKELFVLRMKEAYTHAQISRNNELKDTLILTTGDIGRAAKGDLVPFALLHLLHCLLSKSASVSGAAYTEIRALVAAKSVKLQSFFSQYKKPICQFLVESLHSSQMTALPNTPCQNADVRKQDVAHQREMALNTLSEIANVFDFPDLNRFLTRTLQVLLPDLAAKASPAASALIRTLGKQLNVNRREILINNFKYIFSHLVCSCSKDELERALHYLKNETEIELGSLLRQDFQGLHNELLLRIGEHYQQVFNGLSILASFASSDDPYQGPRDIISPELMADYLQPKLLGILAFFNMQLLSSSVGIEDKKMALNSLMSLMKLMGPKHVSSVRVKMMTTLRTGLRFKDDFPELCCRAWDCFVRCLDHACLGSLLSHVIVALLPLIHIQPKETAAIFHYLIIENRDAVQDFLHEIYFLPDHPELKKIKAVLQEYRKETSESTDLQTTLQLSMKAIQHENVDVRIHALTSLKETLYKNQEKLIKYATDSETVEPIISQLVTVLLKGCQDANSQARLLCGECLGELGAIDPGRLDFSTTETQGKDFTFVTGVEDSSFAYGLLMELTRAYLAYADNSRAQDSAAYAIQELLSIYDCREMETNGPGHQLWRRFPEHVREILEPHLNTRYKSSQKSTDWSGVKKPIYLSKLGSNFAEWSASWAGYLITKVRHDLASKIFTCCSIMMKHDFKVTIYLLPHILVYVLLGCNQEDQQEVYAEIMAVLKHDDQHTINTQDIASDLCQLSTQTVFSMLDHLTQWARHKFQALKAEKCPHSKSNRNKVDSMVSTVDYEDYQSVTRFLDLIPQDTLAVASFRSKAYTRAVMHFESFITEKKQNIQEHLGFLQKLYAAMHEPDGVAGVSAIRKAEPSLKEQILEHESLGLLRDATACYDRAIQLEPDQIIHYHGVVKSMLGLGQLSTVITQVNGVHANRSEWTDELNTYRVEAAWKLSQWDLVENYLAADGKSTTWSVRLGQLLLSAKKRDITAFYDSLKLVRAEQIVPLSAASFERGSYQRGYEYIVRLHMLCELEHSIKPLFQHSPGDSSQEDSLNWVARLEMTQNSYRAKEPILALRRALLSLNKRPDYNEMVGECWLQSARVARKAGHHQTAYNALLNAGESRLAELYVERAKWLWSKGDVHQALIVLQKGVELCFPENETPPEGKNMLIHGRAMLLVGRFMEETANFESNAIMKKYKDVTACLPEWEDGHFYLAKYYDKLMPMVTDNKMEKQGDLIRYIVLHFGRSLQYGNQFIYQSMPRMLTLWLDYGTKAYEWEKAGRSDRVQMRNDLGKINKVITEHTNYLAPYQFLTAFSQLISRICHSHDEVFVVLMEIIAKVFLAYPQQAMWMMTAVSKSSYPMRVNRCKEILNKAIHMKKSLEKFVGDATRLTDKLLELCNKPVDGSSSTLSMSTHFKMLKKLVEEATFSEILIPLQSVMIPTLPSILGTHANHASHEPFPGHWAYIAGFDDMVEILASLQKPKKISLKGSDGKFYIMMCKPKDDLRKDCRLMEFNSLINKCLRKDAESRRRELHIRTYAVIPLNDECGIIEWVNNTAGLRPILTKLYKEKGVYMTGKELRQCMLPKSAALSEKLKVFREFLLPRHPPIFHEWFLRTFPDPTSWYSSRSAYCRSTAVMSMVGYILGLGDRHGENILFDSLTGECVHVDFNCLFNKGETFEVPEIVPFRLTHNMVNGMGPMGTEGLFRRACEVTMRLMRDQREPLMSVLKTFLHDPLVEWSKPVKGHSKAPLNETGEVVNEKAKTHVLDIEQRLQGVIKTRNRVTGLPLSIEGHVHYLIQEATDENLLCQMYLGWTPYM

CDC42BPB, construct: aa1-473, human (from UniProt Q9Y5S2)
relative phosphorylation
Details	at +1	at +2	at +3	at +4	at -1	at -2	at -3	at -4	at -5
A fixed	0.871	1.22	0.922	0.791	0.734	0.478	0.556	0.951	0.922
D fixed	0.4	0.468	0.548	0.721	0.379	0.196	0.199	0.472	0.427
E fixed	0.435	0.373	0.654	0.667	0.313	0.181	0.204	0.506	0.479
F fixed	0.776	0.935	1.01	0.821	0.552	0.442	0.381	0.718	0.843
G fixed	0.803	1.1	1.42	1.07	0.883	0.45	0.44	0.974	1.04
H fixed	0.962	1.19	1.2	1.11	1.21	0.989	1.03	1.06	0.99
I fixed	1.55	1.32	0.96	0.924	0.572	0.419	0.382	0.651	0.788
K fixed	0.865	1.58	1.03	1.34	2.46	2.78	2.55	2.46	2.54
L fixed	1.74	0.816	0.841	0.852	1.36	0.423	0.326	0.7	0.645
M fixed	1.24	0.823	0.944	0.919	1.04	0.459	0.36	0.775	0.664
N fixed	1.89	0.819	0.918	0.856	1.2	0.787	0.524	0.756	0.812
P fixed	0.404	0.842	0.888	1.38	0.786	0.433	0.371	0.873	0.875
Q fixed	1.08	0.699	0.829	1.08	1.09	0.798	0.648	0.851	0.786
R fixed	1.41	1.65	1.52	1.52	2.15	6.46	7.75	3.03	2.81
V fixed	0.983	1.13	0.936	0.787	0.667	0.397	0.335	0.637	0.768
W fixed	0.852	0.934	1.06	1.23	0.648	0.718	0.524	0.849	0.756
Y fixed	0.736	1.12	1.33	0.93	0.97	0.591	0.425	0.735	0.856
pThr fixed	0.479	0.762	0.582	0.698	0.344	0.329	0.352	0.647	0.611
pTyr fixed	0.553	0.745	0.707	0.685	0.467	0.319	0.545	0.558	0.62

ATR, construct: Full length, human (from UniProt Q13535)
relative phosphorylation
Details	at +1	at +2	at +3	at +4	at -1	at -2	at -3	at -4	at -5
A fixed	0.714	1.01	1.05	1.05	1.46	1.01	1.01	0.94	0.971
D fixed	0.582	1.07	1.13	0.968	0.86	0.785	0.814	0.984	1.17
E fixed	0.586	1.07	1.21	0.929	0.742	0.871	0.88	1.18	1.07
F fixed	0.709	0.913	0.944	0.988	0.872	0.957	1.08	1.18	1.3
G fixed	0.651	0.921	0.965	1.13	1.26	0.839	0.875	1.05	1.01
H fixed	0.624	1.06	0.991	1.02	0.845	0.973	0.889	0.982	1.01
I fixed	0.747	0.898	0.866	0.875	0.687	0.793	1.1	0.912	0.818
K fixed	0.649	0.923	0.877	0.928	0.806	1.09	0.911	0.919	0.884
L fixed	0.73	0.871	0.887	0.993	1.26	0.84	1.18	0.901	0.901
M fixed	0.685	0.908	0.92	0.995	0.978	0.94	1.12	0.96	0.931
N fixed	0.933	1.05	1	1.02	1.17	0.945	0.816	0.892	0.877
P fixed	0.689	1.14	1.18	1.19	1.45	1.59	0.972	0.956	0.909
Q fixed	5.91	1.23	1.09	0.994	1.2	1.03	0.859	0.926	0.871
R fixed	0.83	1.09	0.972	0.97	0.855	1.67	1.62	0.982	1
V fixed	0.665	0.967	0.988	0.849	0.725	0.768	0.884	0.867	0.802
W fixed	0.618	0.926	0.934	1.11	0.842	0.916	1.08	1.26	1.23
Y fixed	0.671	0.971	1	0.984	0.987	0.99	0.911	1.11	1.23
pThr fixed	0.679	0.968	1.36	1.1	0.799	0.849	0.99	1.38	1.3
pTyr fixed	0.62	1.01	1.03	1.44	0.904	1.14	1.83	2.14	1.62

MAPK7, construct: aa1-405, human (from UniProt Q13164)
relative phosphorylation
Details	at +1	at +2	at +3	at +4	at -1	at -2	at -3	at -4	at -5
A fixed	5.25	0.808	0.997	0.943	0.957	0.867	1.2	1.21	1.14
D fixed	0.374	0.579	0.866	1.2	0.745	0.491	0.862	1.11	0.83
E fixed	0.338	0.519	0.827	0.951	0.646	0.484	0.872	1.12	0.81
F fixed	0.47	0.908	0.941	0.922	0.956	0.658	0.778	0.919	1.03
G fixed	1.67	1	1.14	1.08	0.808	0.666	1.08	1.09	0.977
H fixed	0.466	0.917	0.886	1.05	1.28	0.568	0.822	0.913	1.07
I fixed	0.372	1.08	1.45	0.998	0.684	1.43	0.988	0.891	1.02
K fixed	0.449	1.24	0.59	0.947	0.834	0.797	0.827	0.943	0.988
L fixed	0.54	1.02	1.27	0.918	1.61	2.64	1.07	0.938	1.06
M fixed	0.523	1.08	1.12	0.993	1.66	1.91	1.13	0.976	0.986
N fixed	0.464	0.963	0.789	0.8	0.948	0.61	1.06	0.954	1
P fixed	3.79	0.758	1.13	1.04	1.13	2.1	1.87	1.16	1.03
Q fixed	0.438	0.927	0.818	1.07	1.02	0.928	0.926	0.941	0.867
R fixed	0.471	2	0.794	0.939	0.983	0.695	1.04	0.894	1.11
V fixed	0.426	1.16	1.08	0.975	0.69	0.986	0.96	0.982	1.01
W fixed	0.534	1.1	1.2	1.21	0.844	0.631	0.791	1.03	0.892
Y fixed	0.429	0.945	1.1	0.97	1.2	0.533	0.737	0.931	1.18
pThr fixed	0.632	0.779	0.702	0.863	0.541	0.976	0.946	1.07	0.901
pTyr fixed	0.518	0.587	0.989	0.835	0.945	0.815	1.02	1.11	1.04
